# Test results published in paper PMC11743793, “Structural insights into human topoisomerase 3β DNA and RNA catalysis and nucleic acid gate dynamics” (Nature Communications, 2025).
# T1: human full-length TOP3B(Y336F) (human, UniProt O95985 1-862, Y336F)
# T1 construct: DNA topoisomerase 3-beta (TOP3B), human, full length; residues 1-717 resolved in the apo map; not shown: His8, N-terminal, cleaved; MBP, N-terminal, cleaved
# T1 sequence (looked up): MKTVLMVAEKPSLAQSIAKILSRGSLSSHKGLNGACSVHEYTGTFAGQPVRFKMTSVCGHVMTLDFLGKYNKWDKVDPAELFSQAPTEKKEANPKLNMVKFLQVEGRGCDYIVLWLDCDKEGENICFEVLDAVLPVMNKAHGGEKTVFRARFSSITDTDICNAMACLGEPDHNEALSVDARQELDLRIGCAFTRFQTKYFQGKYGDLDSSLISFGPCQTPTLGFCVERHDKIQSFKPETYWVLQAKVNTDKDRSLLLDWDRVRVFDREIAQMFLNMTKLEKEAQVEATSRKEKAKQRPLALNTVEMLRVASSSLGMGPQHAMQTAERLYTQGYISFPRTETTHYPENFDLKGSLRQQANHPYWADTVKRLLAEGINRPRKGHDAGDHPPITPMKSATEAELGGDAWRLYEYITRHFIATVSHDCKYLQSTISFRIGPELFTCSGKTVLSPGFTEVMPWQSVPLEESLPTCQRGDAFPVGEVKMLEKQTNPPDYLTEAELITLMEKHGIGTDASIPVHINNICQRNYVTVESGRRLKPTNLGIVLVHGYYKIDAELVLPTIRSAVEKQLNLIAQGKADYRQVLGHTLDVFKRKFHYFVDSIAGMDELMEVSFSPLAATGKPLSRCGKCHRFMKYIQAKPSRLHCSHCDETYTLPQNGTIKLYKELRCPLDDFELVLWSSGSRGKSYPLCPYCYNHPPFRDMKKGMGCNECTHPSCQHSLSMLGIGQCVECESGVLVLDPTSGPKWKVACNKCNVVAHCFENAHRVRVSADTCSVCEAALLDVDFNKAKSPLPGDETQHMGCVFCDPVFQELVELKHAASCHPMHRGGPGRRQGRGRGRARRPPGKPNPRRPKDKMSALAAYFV
# T2: human TOP3Bcore-K10M (1-612 aa) (human, UniProt O95985 1-612, K10M)
# T2 construct: DNA topoisomerase 3-beta (TOP3B), human, core, residues 1-612, rejoining-deficient mutant; In the rejoining complexes Y336 carries the tyrosyl-phosphodiester linkage to the cleaved DNA/RNA (PTR336); also called TOP3B chain of cTOP3B-K10M; not shown: His8, N-terminal, cleaved; MBP, N-terminal, cleaved
# T2 sequence (looked up): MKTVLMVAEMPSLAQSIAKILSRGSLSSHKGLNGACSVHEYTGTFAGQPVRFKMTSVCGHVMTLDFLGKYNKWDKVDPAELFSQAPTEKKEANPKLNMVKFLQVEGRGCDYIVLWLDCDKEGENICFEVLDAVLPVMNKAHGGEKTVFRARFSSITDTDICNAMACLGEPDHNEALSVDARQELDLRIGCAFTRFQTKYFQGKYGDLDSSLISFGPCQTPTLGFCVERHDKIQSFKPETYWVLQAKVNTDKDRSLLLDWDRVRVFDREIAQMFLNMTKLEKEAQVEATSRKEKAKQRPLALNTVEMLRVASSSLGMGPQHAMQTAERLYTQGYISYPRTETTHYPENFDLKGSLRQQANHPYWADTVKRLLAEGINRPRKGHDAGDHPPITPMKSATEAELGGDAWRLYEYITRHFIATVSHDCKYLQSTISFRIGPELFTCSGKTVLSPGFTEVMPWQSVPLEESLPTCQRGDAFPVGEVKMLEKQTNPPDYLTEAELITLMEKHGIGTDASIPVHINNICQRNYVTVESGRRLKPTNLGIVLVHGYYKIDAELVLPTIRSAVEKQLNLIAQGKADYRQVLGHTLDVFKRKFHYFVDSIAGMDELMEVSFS
# T3: human TOP3Bcore-Y336F (1-612 aa) (human, UniProt O95985 1-612, Y336F)
# T3 construct: DNA topoisomerase 3-beta (TOP3B), human, core, residues 1-612, catalytic tyrosine changed to phenylalanine; also called TOP3B chain of cTOP3B-Y336F; not shown: His8, N-terminal, cleaved; MBP, N-terminal, cleaved
# T3 sequence (looked up): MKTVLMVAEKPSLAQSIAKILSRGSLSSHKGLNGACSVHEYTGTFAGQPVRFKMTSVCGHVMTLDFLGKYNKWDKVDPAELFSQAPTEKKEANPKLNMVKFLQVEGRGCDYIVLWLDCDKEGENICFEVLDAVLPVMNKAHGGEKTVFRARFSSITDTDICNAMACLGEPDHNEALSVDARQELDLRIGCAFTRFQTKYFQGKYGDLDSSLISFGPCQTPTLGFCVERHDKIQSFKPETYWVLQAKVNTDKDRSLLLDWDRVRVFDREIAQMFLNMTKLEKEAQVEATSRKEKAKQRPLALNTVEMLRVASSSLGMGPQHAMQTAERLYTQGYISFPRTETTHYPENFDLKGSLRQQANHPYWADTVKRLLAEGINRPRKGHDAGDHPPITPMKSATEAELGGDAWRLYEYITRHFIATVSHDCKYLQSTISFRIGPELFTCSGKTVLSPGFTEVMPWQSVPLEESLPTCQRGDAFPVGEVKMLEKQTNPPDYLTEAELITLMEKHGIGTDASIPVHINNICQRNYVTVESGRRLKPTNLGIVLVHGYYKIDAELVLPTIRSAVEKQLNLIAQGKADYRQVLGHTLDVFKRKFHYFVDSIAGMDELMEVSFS
# Assays:
# [1] = target: the molecule itself; test: cryo-EM structure; cTOP3B mixed with a DNA bubble (11-nt strand opposite 13 unmatched nucleotides) at about 1:1; species with two cTOP3B on one DNA bubble, ~4.3 Å map from 63,000 particles
# [2] = target: T1, human full-length TOP3B(Y336F); test: cryo-EM structure; full-length TOP3B(Y336F)-TDRD3(1-190 aa) with a DNA mismatch bubble or a short R-loop substrate; cryo-EM volumes; details: both partners purified
# [3] = target: T2, human TOP3Bcore-K10M (1-612 aa); test: cryo-EM structure; cTOP3B heterodimer (wild type, Y336F or K10M; 3 mg/ml) mixed with equimolar gapped 43-mer DNA or RNA; 25 mM Bis-Tris pH 6.8, 0.1 M KCl, 0.5 mM MnCl2 (5 mM for the rejoining complexes), 0.1% octyl β-D-glucopyranoside, 4 mM DTT, 2% glycerol; RT; details: both partners purified
# [4] = target: T3, human TOP3Bcore-Y336F (1-612 aa); test: as above; details: both partners purified
binder,measurement,setting,value
"human TOP3Bcore (1-612 aa), wild type (domain or fragment, UniProt O95985 1-612, looked up, DNA topoisomerase 3-beta (TOP3B), human, core, residues 1-612; In the DNA post-cleavage complex the catalytic Y336 is covalently linked to the DNA scissile phosphate (PTR336); Tags removed by PreScission Protease before SEC; also called hsTOP3Bcore(1-612AA); TOP3B chain of cTOP3B; not shown: His8, N-terminal, cleaved; MBP, N-terminal, cleaved) MKTVLMVAEKPSLAQSIAKILSRGSLSSHKGLNGACSVHEYTGTFAGQPVRFKMTSVCGHVMTLDFLGKYNKWDKVDPAELFSQAPTEKKEANPKLNMVKFLQVEGRGCDYIVLWLDCDKEGENICFEVLDAVLPVMNKAHGGEKTVFRARFSSITDTDICNAMACLGEPDHNEALSVDARQELDLRIGCAFTRFQTKYFQGKYGDLDSSLISFGPCQTPTLGFCVERHDKIQSFKPETYWVLQAKVNTDKDRSLLLDWDRVRVFDREIAQMFLNMTKLEKEAQVEATSRKEKAKQRPLALNTVEMLRVASSSLGMGPQHAMQTAERLYTQGYISYPRTETTHYPENFDLKGSLRQQANHPYWADTVKRLLAEGINRPRKGHDAGDHPPITPMKSATEAELGGDAWRLYEYITRHFIATVSHDCKYLQSTISFRIGPELFTCSGKTVLSPGFTEVMPWQSVPLEESLPTCQRGDAFPVGEVKMLEKQTNPPDYLTEAELITLMEKHGIGTDASIPVHINNICQRNYVTVESGRRLKPTNLGIVLVHGYYKIDAELVLPTIRSAVEKQLNLIAQGKADYRQVLGHTLDVFKRKFHYFVDSIAGMDELMEVSFS",binding result,[1],binds
"human TDRD3(1-190 aa) (domain or fragment, UniProt Q9H7E2 1-190, looked up, Tudor domain-containing protein 3 (TDRD3), human, residues 1-190; not shown: His8, N-terminal, cleaved; MBP, N-terminal, cleaved) MLRLQMTDGHISCTAVEFSYMSKISLNTPPGTKVKLSGIVDIKNGFLLLNDSNTTVLGGEVEHLIEKWELQRSLSKHNRSNIGTEGGPPPFVPFGQKCVSHVQVDSRELDRRKTLQVTMPVKPTNDNDEFEKQRTAAIAEVAKSKETKTFGGGGGGARSNLNMNAAGNRNREVLQKEKSTKSEGKHEGVY",binding result,[2],binds
"N-terminal fragment of human TDRD3 (1-171 aa) containing its DUF domain and OB-fold (domain or fragment, UniProt Q9H7E2 1-171, looked up, Tudor domain-containing protein 3 (TDRD3), human, residues 1-171 (DUF domain and OB-fold); also called TDRD3 chain of cTOP3B; OB (in TOP3Bcore-OB); not shown: His8, N-terminal, cleaved; MBP, N-terminal, cleaved) MLRLQMTDGHISCTAVEFSYMSKISLNTPPGTKVKLSGIVDIKNGFLLLNDSNTTVLGGEVEHLIEKWELQRSLSKHNRSNIGTEGGPPPFVPFGQKCVSHVQVDSRELDRRKTLQVTMPVKPTNDNDEFEKQRTAAIAEVAKSKETKTFGGGGGGARSNLNMNAAGNRNR",binding result,[3],binds
same,binding result,[4],binds
